US20210032299A1 (Eli Lilly, published 2021)
Starred links: 1 amine or outer side, 2 acyl side, 3 side chain; linkers in the order of their positions; H or OH if unused. Non-standard residues stand in square brackets, D forms with d. Groups on a side chain read outwards from the residue. No end group written: not given here. *: point of attachment. C20 diacid = O=C(O)CCCCCCCCCCCCCCCCCCC(=O)*; γGlu = O=C(O)[C@H](CCC(=O)[*:2])N[*:1]; 4Pal = N[C@@H](Cc1ccncc1)C(=O)O; αMeL = CC(C)C[C@](C)(N)C(=O)O; AEEA = NCCOCCOCC(=O)O; Aib = CC(C)(N)C(=O)O

T1: human glucose-dependent insulinotropic peptide receptor (human, UniProt P48546 22-466)
T1 sequence (looked up): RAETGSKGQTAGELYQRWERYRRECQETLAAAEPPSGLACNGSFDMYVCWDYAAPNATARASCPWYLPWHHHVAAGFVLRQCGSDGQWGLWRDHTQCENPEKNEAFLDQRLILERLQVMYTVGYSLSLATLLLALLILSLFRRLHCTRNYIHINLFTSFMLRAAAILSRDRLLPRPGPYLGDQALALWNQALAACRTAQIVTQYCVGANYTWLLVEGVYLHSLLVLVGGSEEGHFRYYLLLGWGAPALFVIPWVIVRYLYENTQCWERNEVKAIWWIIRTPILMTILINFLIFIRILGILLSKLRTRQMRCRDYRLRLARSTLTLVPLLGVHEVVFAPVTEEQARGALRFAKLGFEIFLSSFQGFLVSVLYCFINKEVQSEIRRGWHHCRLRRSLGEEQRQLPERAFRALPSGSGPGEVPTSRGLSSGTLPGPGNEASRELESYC

B1: Example 72 (peptide)
peptide: Y[Aib]EGTLISDYSI[αMeL]LDKK([AEEA-AEEA-γGlu-C20 diacid])HQ[Aib]EFVEYLLETGPSSGAPPPS-NH2
modifications: N-terminus assumed
SMILES: CC[C@H](C)[C@H](NC(=O)[C@H](CC(C)C)NC(=O)[C@@H](NC(=O)CNC(=O)[C@H](CCC(=O)O)NC(=O)C(C)(C)NC(=O)[C@@H](N)Cc1ccc(O)cc1)[C@@H](C)O)C(=O)N[C@@H](CO)C(=O)N[C@@H](CC(=O)O)C(=O)N[C@@H](Cc1ccc(O)cc1)C(=O)N[C@@H](CO)C(=O)N[C@H](C(=O)N[C@@](C)(CC(C)C)C(=O)N[C@@H](CC(C)C)C(=O)N[C@@H](CC(=O)O)C(=O)N[C@@H](CCCCN)C(=O)N[C@@H](CCCCNC(=O)COCCOCCNC(=O)COCCOCCNC(=O)CC[C@H](NC(=O)CCCCCCCCCCCCCCCCCCC(=O)O)C(=O)O)C(=O)N[C@@H](Cc1c[nH]cn1)C(=O)N[C@@H](CCC(N)=O)C(=O)NC(C)(C)C(=O)N[C@@H](CCC(=O)O)C(=O)N[C@@H](Cc1ccccc1)C(=O)N[C@H](C(=O)N[C@@H](CCC(=O)O)C(=O)N[C@@H](Cc1ccc(O)cc1)C(=O)N[C@@H](CC(C)C)C(=O)N[C@@H](CC(C)C)C(=O)N[C@@H](CCC(=O)O)C(=O)N[C@H](C(=O)NCC(=O)N1CCC[C@H]1C(=O)N[C@@H](CO)C(=O)N[C@@H](CO)C(=O)NCC(=O)N[C@@H](C)C(=O)N1CCC[C@H]1C(=O)N1CCC[C@H]1C(=O)N1CCC[C@H]1C(=O)N[C@@H](CO)C(N)=O)[C@@H](C)O)C(C)C)[C@@H](C)CC
B2: Example 74 (peptide)
peptide: YXEGTXISDYSIXLDKKHQXDFVEXLLEGGPSSGAPPPS
modifications: Aib2; Iva6; αMeL13; K17((2-[2-(2-Amino-ethoxy)-ethoxy]-acetyl)2-(γ-Glu)-CO-(CH2)18-CO2H); Aib20; 4-Pal25; C-terminal amide
B3: Example 76 (peptide)
peptide: YXEGTXISDYSIXLDXKHQXDFVEXLLEGGPSSGAPPPS
modifications: Aib2; Iva6; αMeL13; Orn16; K17((2-[2-(2-Amino-ethoxy)-ethoxy]-acetyl)2-(γ-Glu)-CO-(CH2)18-CO2H); Aib20; 4-Pal25; C-terminal amide
B4: Example 77 (peptide)
peptide: YXEGTXISDYSIXLDXKHQXDFVEXLLETGPSSGAPPPS
modifications: Aib2; Iva6; αMeL13; Orn16; K17((2-[2-(2-Amino-ethoxy)-ethoxy]-acetyl)2-(γ-Glu)-CO-(CH2)18-CO2H); Aib20; 4-Pal25; C-terminal amide
B5: Example 75 (peptide)
peptide: YXEGTXISDYSIXLDKKHQXDFVEXLLETGPSSGAPPPS
modifications: Aib2; Iva6; αMeL13; K17((2-[2-(2-Amino-ethoxy)-ethoxy]-acetyl)2-(γ-Glu)-CO-(CH2)18-CO2H); Aib20; 4-Pal25; C-terminal amide
B6: Example 71 (peptide)
peptide: Y[Aib]EGTFISDYSI[αMeL]LDKK([AEEA-AEEA-γGlu-C20 diacid])HQ[Aib]DFVEWLLETGPSSGAPPPS-NH2
modifications: N-terminus assumed
SMILES: CC[C@H](C)[C@H](NC(=O)[C@H](Cc1ccccc1)NC(=O)[C@@H](NC(=O)CNC(=O)[C@H](CCC(=O)O)NC(=O)C(C)(C)NC(=O)[C@@H](N)Cc1ccc(O)cc1)[C@@H](C)O)C(=O)N[C@@H](CO)C(=O)N[C@@H](CC(=O)O)C(=O)N[C@@H](Cc1ccc(O)cc1)C(=O)N[C@@H](CO)C(=O)N[C@H](C(=O)N[C@@](C)(CC(C)C)C(=O)N[C@@H](CC(C)C)C(=O)N[C@@H](CC(=O)O)C(=O)N[C@@H](CCCCN)C(=O)N[C@@H](CCCCNC(=O)COCCOCCNC(=O)COCCOCCNC(=O)CC[C@H](NC(=O)CCCCCCCCCCCCCCCCCCC(=O)O)C(=O)O)C(=O)N[C@@H](Cc1c[nH]cn1)C(=O)N[C@@H](CCC(N)=O)C(=O)NC(C)(C)C(=O)N[C@@H](CC(=O)O)C(=O)N[C@@H](Cc1ccccc1)C(=O)N[C@H](C(=O)N[C@@H](CCC(=O)O)C(=O)N[C@@H](Cc1c[nH]c2ccccc12)C(=O)N[C@@H](CC(C)C)C(=O)N[C@@H](CC(C)C)C(=O)N[C@@H](CCC(=O)O)C(=O)N[C@H](C(=O)NCC(=O)N1CCC[C@H]1C(=O)N[C@@H](CO)C(=O)N[C@@H](CO)C(=O)NCC(=O)N[C@@H](C)C(=O)N1CCC[C@H]1C(=O)N1CCC[C@H]1C(=O)N1CCC[C@H]1C(=O)N[C@@H](CO)C(N)=O)[C@@H](C)O)C(C)C)[C@@H](C)CC
B7: Example 73 (peptide)
peptide: Y[Aib]EGTLISDYSI[αMeL]LDKK([AEEA-AEEA-γGlu-C20 diacid])HQ[Aib]EFVEYLLEGGPSSGAPPPS-NH2
modifications: N-terminus assumed
SMILES: CC[C@H](C)[C@H](NC(=O)[C@H](CC(C)C)NC(=O)[C@@H](NC(=O)CNC(=O)[C@H](CCC(=O)O)NC(=O)C(C)(C)NC(=O)[C@@H](N)Cc1ccc(O)cc1)[C@@H](C)O)C(=O)N[C@@H](CO)C(=O)N[C@@H](CC(=O)O)C(=O)N[C@@H](Cc1ccc(O)cc1)C(=O)N[C@@H](CO)C(=O)N[C@H](C(=O)N[C@@](C)(CC(C)C)C(=O)N[C@@H](CC(C)C)C(=O)N[C@@H](CC(=O)O)C(=O)N[C@@H](CCCCN)C(=O)N[C@@H](CCCCNC(=O)COCCOCCNC(=O)COCCOCCNC(=O)CC[C@H](NC(=O)CCCCCCCCCCCCCCCCCCC(=O)O)C(=O)O)C(=O)N[C@@H](Cc1c[nH]cn1)C(=O)N[C@@H](CCC(N)=O)C(=O)NC(C)(C)C(=O)N[C@@H](CCC(=O)O)C(=O)N[C@@H](Cc1ccccc1)C(=O)N[C@H](C(=O)N[C@@H](CCC(=O)O)C(=O)N[C@@H](Cc1ccc(O)cc1)C(=O)N[C@@H](CC(C)C)C(=O)N[C@@H](CC(C)C)C(=O)N[C@@H](CCC(=O)O)C(=O)NCC(=O)NCC(=O)N1CCC[C@H]1C(=O)N[C@@H](CO)C(=O)N[C@@H](CO)C(=O)NCC(=O)N[C@@H](C)C(=O)N1CCC[C@H]1C(=O)N1CCC[C@H]1C(=O)N1CCC[C@H]1C(=O)N[C@@H](CO)C(N)=O)C(C)C)[C@@H](C)CC
B8: Example 78 (peptide)
peptide: Y[Aib]EGTFISDYSI[αMeL]LDKK([AEEA-AEEA-γGlu-C20 diacid])HQ[Aib]DFVE[4Pal]LLAAGPSSGAPPPS-NH2
modifications: N-terminus assumed
SMILES: CC[C@H](C)[C@H](NC(=O)[C@H](Cc1ccccc1)NC(=O)[C@@H](NC(=O)CNC(=O)[C@H](CCC(=O)O)NC(=O)C(C)(C)NC(=O)[C@@H](N)Cc1ccc(O)cc1)[C@@H](C)O)C(=O)N[C@@H](CO)C(=O)N[C@@H](CC(=O)O)C(=O)N[C@@H](Cc1ccc(O)cc1)C(=O)N[C@@H](CO)C(=O)N[C@H](C(=O)N[C@@](C)(CC(C)C)C(=O)N[C@@H](CC(C)C)C(=O)N[C@@H](CC(=O)O)C(=O)N[C@@H](CCCCN)C(=O)N[C@@H](CCCCNC(=O)COCCOCCNC(=O)COCCOCCNC(=O)CC[C@H](NC(=O)CCCCCCCCCCCCCCCCCCC(=O)O)C(=O)O)C(=O)N[C@@H](Cc1c[nH]cn1)C(=O)N[C@@H](CCC(N)=O)C(=O)NC(C)(C)C(=O)N[C@@H](CC(=O)O)C(=O)N[C@@H](Cc1ccccc1)C(=O)N[C@H](C(=O)N[C@@H](CCC(=O)O)C(=O)N[C@@H](Cc1ccncc1)C(=O)N[C@@H](CC(C)C)C(=O)N[C@@H](CC(C)C)C(=O)N[C@@H](C)C(=O)N[C@@H](C)C(=O)NCC(=O)N1CCC[C@H]1C(=O)N[C@@H](CO)C(=O)N[C@@H](CO)C(=O)NCC(=O)N[C@@H](C)C(=O)N1CCC[C@H]1C(=O)N1CCC[C@H]1C(=O)N1CCC[C@H]1C(=O)N[C@@H](CO)C(N)=O)C(C)C)[C@@H](C)CC
B9: Example 79 (peptide)
peptide: Y[Aib]EGTFISDYSI[αMeL]LDKK([AEEA-AEEA-γGlu-C20 diacid])HQ[Aib]DFVE[4Pal]LLAQGPSSGAPPPS-NH2
modifications: N-terminus assumed
SMILES: CC[C@H](C)[C@H](NC(=O)[C@H](Cc1ccccc1)NC(=O)[C@@H](NC(=O)CNC(=O)[C@H](CCC(=O)O)NC(=O)C(C)(C)NC(=O)[C@@H](N)Cc1ccc(O)cc1)[C@@H](C)O)C(=O)N[C@@H](CO)C(=O)N[C@@H](CC(=O)O)C(=O)N[C@@H](Cc1ccc(O)cc1)C(=O)N[C@@H](CO)C(=O)N[C@H](C(=O)N[C@@](C)(CC(C)C)C(=O)N[C@@H](CC(C)C)C(=O)N[C@@H](CC(=O)O)C(=O)N[C@@H](CCCCN)C(=O)N[C@@H](CCCCNC(=O)COCCOCCNC(=O)COCCOCCNC(=O)CC[C@H](NC(=O)CCCCCCCCCCCCCCCCCCC(=O)O)C(=O)O)C(=O)N[C@@H](Cc1c[nH]cn1)C(=O)N[C@@H](CCC(N)=O)C(=O)NC(C)(C)C(=O)N[C@@H](CC(=O)O)C(=O)N[C@@H](Cc1ccccc1)C(=O)N[C@H](C(=O)N[C@@H](CCC(=O)O)C(=O)N[C@@H](Cc1ccncc1)C(=O)N[C@@H](CC(C)C)C(=O)N[C@@H](CC(C)C)C(=O)N[C@@H](C)C(=O)N[C@@H](CCC(N)=O)C(=O)NCC(=O)N1CCC[C@H]1C(=O)N[C@@H](CO)C(=O)N[C@@H](CO)C(=O)NCC(=O)N[C@@H](C)C(=O)N1CCC[C@H]1C(=O)N1CCC[C@H]1C(=O)N1CCC[C@H]1C(=O)N[C@@H](CO)C(N)=O)C(C)C)[C@@H](C)CC

Columns and labels:
Experiment in all cases: cell-based or functional assay
human glucagon receptor = human glucagon receptor (human, UniProt P47871 26-477)
Chain of human glucagon receptor (P47871 26-477): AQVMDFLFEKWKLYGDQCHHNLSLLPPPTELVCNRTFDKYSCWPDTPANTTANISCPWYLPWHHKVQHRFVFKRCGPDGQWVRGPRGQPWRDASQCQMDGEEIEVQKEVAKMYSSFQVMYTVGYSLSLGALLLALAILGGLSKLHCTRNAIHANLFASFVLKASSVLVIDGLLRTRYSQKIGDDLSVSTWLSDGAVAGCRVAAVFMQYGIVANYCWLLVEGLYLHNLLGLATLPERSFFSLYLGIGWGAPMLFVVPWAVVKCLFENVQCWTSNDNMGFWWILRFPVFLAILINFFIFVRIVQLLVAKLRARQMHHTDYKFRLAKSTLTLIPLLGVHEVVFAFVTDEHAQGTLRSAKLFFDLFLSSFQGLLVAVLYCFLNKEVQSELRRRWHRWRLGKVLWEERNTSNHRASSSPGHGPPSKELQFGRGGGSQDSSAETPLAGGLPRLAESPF

[1] = biological target: T1, human glucose-dependent insulinotropic …
human GLP-1 receptor = human GLP-1 receptor (human, UniProt P43220 24-463)

Binder	hGcgR cAMP Rel EC50 (human glucagon receptor)	hGIPR cAMP Rel EC50 [1]	hGLP1R cAMP Rel EC50 (human GLP-1 receptor)
B1	> 5000 nM	0.0182 nM	> 5 µM
B2	627 nM	0.0167 nM	> 5 µM
B3	1200 nM	0.0154 nM	> 5 µM
B4	2660 nM	0.0265 nM	> 5 µM
B5	2170 nM	0.0182 nM	> 5 µM
B6	581 nM	0.0721 nM	> 5 µM
B7	> 5000 nM	0.0151 nM	> 5 µM
B8	3000 nM	0.0125 nM	> 5 µM
B9	> 5000 nM	0.0316 nM	> 5 µM
